Assay results from patent CN117466995A (YIDAO BIOTECHNOLOGY SUZHOU CO LTD, dated 2024).

Legend:
Test in all cases: direct ELISA on coated VLP antigens
HPV 52 VLP抗原 = target: T1, HPV 52 VLP抗原 (HPV 52, UniProt Q05138 27-529)
T1 sequence: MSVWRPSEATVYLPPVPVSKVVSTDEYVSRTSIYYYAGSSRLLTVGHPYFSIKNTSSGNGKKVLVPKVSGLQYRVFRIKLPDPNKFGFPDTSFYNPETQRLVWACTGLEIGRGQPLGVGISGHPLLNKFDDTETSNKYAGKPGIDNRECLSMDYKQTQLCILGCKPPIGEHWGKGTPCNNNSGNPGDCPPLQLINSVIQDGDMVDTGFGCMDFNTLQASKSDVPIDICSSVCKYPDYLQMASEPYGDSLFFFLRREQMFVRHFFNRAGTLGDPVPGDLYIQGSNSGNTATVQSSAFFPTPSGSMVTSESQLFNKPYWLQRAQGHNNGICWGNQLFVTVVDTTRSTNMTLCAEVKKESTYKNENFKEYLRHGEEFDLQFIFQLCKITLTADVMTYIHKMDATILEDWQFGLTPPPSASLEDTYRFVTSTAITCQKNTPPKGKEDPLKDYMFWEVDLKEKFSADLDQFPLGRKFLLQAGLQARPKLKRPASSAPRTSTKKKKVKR

HPV 58 VLP抗原 = target: T2, HPV 58 VLP抗原 (HPV 58, UniProt P26535 27-524)
T2 sequence: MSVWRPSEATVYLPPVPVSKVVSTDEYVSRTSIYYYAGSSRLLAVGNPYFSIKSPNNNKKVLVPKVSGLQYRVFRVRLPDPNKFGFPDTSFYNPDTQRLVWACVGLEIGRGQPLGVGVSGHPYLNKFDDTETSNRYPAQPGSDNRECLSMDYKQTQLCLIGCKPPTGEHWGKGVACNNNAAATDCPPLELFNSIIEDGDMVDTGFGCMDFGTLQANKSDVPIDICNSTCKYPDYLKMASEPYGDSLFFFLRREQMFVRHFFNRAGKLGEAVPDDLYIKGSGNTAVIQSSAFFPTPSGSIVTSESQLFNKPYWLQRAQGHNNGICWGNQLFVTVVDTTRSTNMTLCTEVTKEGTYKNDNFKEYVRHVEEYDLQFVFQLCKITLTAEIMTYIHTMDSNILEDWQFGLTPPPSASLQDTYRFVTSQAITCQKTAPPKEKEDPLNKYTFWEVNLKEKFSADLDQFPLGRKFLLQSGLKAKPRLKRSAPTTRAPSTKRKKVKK

HPV11 VLP抗原 = target: T3, HPV11 VLP抗原 (HPV11, UniProt P04012 1-501)
T3 sequence: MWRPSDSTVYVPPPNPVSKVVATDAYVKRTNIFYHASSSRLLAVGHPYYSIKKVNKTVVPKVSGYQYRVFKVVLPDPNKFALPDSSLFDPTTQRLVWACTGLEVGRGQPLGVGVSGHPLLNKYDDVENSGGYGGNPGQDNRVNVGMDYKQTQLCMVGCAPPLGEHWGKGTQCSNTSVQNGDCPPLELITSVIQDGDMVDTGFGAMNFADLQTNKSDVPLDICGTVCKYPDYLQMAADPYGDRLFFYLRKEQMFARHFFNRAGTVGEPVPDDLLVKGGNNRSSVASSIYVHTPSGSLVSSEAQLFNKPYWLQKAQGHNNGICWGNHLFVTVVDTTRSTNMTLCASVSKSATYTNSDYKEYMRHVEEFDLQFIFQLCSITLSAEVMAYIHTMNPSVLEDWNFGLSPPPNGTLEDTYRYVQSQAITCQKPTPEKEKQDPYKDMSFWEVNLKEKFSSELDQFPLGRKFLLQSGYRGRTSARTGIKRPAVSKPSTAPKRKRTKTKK

HPV 18 VLP抗原 = target: T4, HPV 18 VLP抗原 (HPV 18, UniProt P06794 62-568)
T4 sequence: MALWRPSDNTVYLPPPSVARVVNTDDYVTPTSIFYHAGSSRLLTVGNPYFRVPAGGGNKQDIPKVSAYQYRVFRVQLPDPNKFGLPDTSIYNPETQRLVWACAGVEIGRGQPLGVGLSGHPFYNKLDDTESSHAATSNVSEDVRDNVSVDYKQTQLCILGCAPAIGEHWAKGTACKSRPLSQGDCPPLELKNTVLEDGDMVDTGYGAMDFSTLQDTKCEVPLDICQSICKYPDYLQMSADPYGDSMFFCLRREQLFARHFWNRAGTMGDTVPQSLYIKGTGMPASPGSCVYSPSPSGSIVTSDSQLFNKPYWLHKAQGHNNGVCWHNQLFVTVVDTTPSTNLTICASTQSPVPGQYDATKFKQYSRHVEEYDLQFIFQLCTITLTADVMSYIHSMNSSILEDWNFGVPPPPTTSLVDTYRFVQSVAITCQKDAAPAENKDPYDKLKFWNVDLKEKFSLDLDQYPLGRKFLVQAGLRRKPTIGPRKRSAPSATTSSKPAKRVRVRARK

HPV 31 VLP抗原 = target: T5, HPV 31 VLP抗原 (HPV 31, UniProt P17388 1-504)
T5 sequence: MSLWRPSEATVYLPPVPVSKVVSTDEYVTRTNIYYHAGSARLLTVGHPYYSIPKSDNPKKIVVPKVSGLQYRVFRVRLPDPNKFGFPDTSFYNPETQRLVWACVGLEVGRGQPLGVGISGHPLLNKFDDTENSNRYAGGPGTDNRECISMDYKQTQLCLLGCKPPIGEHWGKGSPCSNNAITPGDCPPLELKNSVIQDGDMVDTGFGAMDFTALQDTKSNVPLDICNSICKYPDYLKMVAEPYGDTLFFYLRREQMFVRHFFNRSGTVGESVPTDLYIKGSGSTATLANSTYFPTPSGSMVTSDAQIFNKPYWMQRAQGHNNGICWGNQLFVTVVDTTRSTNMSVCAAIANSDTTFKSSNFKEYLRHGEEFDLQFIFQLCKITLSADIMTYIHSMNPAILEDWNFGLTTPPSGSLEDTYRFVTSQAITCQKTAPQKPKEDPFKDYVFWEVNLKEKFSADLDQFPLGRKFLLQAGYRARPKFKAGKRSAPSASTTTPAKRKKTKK

Measured: binding result

B1: 杂交瘤细胞株7A5(CGMCC NO:45706)分泌的鼠源单克隆抗体 (antibody, V domains shown)
VH: QPGAELVKPGASVKLSCKASGYTFTSYWMHWVKQRPGQGLEWIGEINPSNGHTNYNEKFKSKATLTVDKSSSTAYMQLSSLTSEDSAVYYCAPCYGSSYDYYAMDYWGQGTSVTVSS
VL: DIVLTQSPASLAVSLGQRATISCRASQSVSTSSYSYMHWYQQKPGQPPKLLIKYASNLESGVPARFSGSGSGTDFTLNIHPVEEEDTATYYCQHSWEIPYTFGGGTKLEIK
notes: also called 鼠单抗7A5; 抗体7A5
no binding: HPV 52 VLP抗原 | HPV 58 VLP抗原 | HPV11 VLP抗原 | HPV 18 VLP抗原 | HPV 31 VLP抗原

B2: 杂交瘤细胞株11G1(CGMCC NO:45707)分泌的鼠源单克隆抗体 (antibody, V domains shown)
VH: QVQLQQPGAELVKPGASVKLSCKASGYTFTSYWMHWVKRRPGQGLEWIGEINPSNGLTNYNEKFKSKGTLTVDKSSSAAFMHLSSLTSEDSAVYYCARFHGSDLYAMDYWGQGTSVTVSS
VL: DIVLTQSPASLAVSLGQRATISCRASQSVSTSSYSYMHWYQQKPGQPPKLLIKYASNLESGVPARFSGSGSGTDFTLNIHPVEEEDTATYYCQHSWEIPYTFGGGTKLEIK
notes: also called 鼠单抗11G1; 抗体11G1
no binding: HPV 52 VLP抗原 | HPV 58 VLP抗原 | HPV11 VLP抗原 | HPV 18 VLP抗原 | HPV 31 VLP抗原
